Here are results for four molecules from patent US20170204176A1 (MacroGenics, published 2017).

Experiment [1] concerns the target T1, EphA2 on DU145 human prostate cells (human, UniProt P29317 24-976).
T1 construct: whole, on cells; DU145 cells carry both EphA2 and DR5; also called DU145 cells (express EphA2 and DR5, not gpA33)
The experiment can be described thus: FACS on DU145 cells (gpA33- EphA2+ DR5+), Log MFI.

Experiment [2] concerns the target T2, DR5 on DU145 human prostate cells (human, UniProt O14763 56-440).
T2 construct: whole, on cells; DU145 cells carry both EphA2 and DR5; also called DU145 cells (express EphA2 and DR5, not gpA33)
Nature of the experiment: FACS on DU145 cells (gpA33- EphA2+ DR5+), Log MFI.

Experiment [3] has as its target T3, EphA2 on EphA2-expressing CHO cells (UniProt P29317 24-976, limits assumed).
T3 construct: whole, on cells; EphA2 mAb 1 is called an anti-human EphA2 antibody; also called EphA2-expressing CHO target cells
The experiment can be described thus: FACS on EphA2-expressing CHO cells (Log MFI).

For experiment [4], the target named is T4, DR5 on DR5-expressing CHO cells (UniProt O14763 56-440, limits assumed).
T4 construct: whole, on cells; also called DR5-expressing CHO target cells
Nature of the experiment: FACS on DR5-expressing CHO cells (Log MFI).
From the text: The ability of Tri-Specific Binding Molecules of the present invention to bind to target cells was investigated.

For experiment [5], the target named is T1, EphA2 on DU145 human prostate cells. Nature of the experiment: FACS on DU145 cells (gpA33- EphA2+ DR5+), Log MFI; only the EphA2 domain has its antigen on these cells.

B1: gpA33 mAb 1 x CD3 mAb 2 (bispecific antibody)
first polypeptide chain (VL gpA33 mAb 1 - Linker 1 - VH CD3 mAb 2 D65G - ASTKG - cysteine-containing E-coil): DIQLTQSPSFLSASVGDRVTITCSARSSISFMYWYQQKPGKAPKLLIYDTSNLASGVPSRFSGSGSGTEFTLTISSLEAEDAATYYCQQWSSYPLTFGQGTKLEIKGGGSGGGGEVQLVESGGGLVQPGGSLRLSCAASGFTFSTYAMNWVRQAPGKGLEWVGRIRSKYNNYATYYADSVKGRFTISRDDSKNSLYLQMNSLKTEDTAVYYCVRHGNFGNSYVSWFAYWGQGTLVTVSSASTKGEVAACEKEVAALEKEVAALEKEVAALEK
second polypeptide chain (VL CD3 mAb 2 - Linker 1 - VH gpA33 mAb 1 - ASTKG - cysteine-containing K-coil): QAVVTQEPSLTVSPGGTVTLTCRSSTGAVTTSNYANWVQQKPGQAPRGLIGGTNKRAPWTPARFSGSLLGGKAALTITGAQAEDEADYYCALWYSNLWVFGGGTKLTVLGGGGSGGGGQVQLVQSGAEVKKPGASVKVSCKASGYTFTGSWMNWVRQAPGQGLEWIGRIYPGDGETNYNGKFKDRVTITADKSTSTAYMELSSLRSEDTAVYYCARIYGNNVYFDVWGQGTTVTVSSASTKGKVAACKEKVAALKEKVAALKEKVAALKE
In the case of B1, the binding result in experiment [1], in experiment [2], in experiment [3] and in experiment [4] was “no binding” each time.

B2: EphA2 mAb 1×CD3 mAb 2×DR5 mAb 1 (other)
chain 1: DIQMTQTTSSLSASLGDRITISCRASQDISNYLNWYQQKPDGTVKLLIYYTSRLHSGVPSRFSGSGSGTDYSLTISNLEQEDIATYFCQQGYTLYTFGGGTKLEIKGGGSGGGGEVQLVESGGGLVQPGGSLRLSCAASGFTFSTYAMNWVRQAPGKGLEWVGRIRSKYNNYATYYADSVKGRFTISRDDSKNSLYLQMNSLKTEDTAVYYCVRHGNFGNSYVSWFAYWGQGTLVTVSSGGCGGGEVAALEKEVAALEKEVAALEKEVAALEKGGGDKTHTCPPCPAPEAAGGPSVFLFPPKPKDTLMISRTPEVTCVVVDVSHEDPEVKFNWYVDGVEVHNAKTKPREEQYNSTYRVVSVLTVLHQDWLNGKEYKCKVSNKALPAPIEKTISKAKGQPREPQVYTLPPSREEMTKNQVSLWCLVKGFYPSDIAVEWESNGQPENNYKTTPPVLDSDGSFFLYSKLTVDKSRWQQGNVFSCSVMHEALHNHYTQKSLSLSPGK
chain 2: QAVVTQEPSLTVSPGGTVTLTCRSSTGAVTTSNYANWVQQKPGQAPRGLIGGTNKRAPWTPARFSGSLLGGKAALTITGAQAEDEADYYCALWYSNLWVFGGGTKLTVLGGGGSGGGGQVQLKESGPGLVAPSQSLSITCTVSGFSLSRYSVHWVRQPPGKGLEWLGMIWGGGSTDYNSALKSRLSISKDNSKSQVFLKMNSLQTDDTAMYYCARKHGNYYTMDYWGQGTSVTVSSGGCGGGKVAALKEKVAALKEKVAALKEKVAALKE
heavy: EVKFLESGGGLVQPGGSLKLSCVASGFDFSRYWMSWVRQAPGKGLEWIGEINPDSNTINYTPSLKDKFIISRDNAKNTLYLQMTKVRSEDTALYYCTRRAYYGNPAWFAYWGQGTLVTVSSASTKGPSVFPLAPSSKSTSGGTAALGCLVKDYFPEPVTVSWNSGALTSGVHTFPAVLQSSGLYSLSSVVTVPSSSLGTQTYICNVNHKPSNTKVDKRVEPKSCDKTHTCPPCPAPEAAGGPSVFLFPPKPKDTLMISRTPEVTCVVVDVSHEDPEVKFNWYVDGVEVHNAKTKPREEQYNSTYRVVSVLTVLHQDWLNGKEYKCKVSNKALPAPIEKTISKAKGQPREPQVYTLPPSREEMTKNQVSLSCAVKGFYPSDIAVEWESNGQPENNYKTTPPVLDSDGSFFLVSKLTVDKSRWQQGNVFSCSVMHEALHNRYTQKSLSLSPGK
light: DIVLTQSPASLAVSLGQRATISCRASKSVSSSGYSYMHWYQQKPGQPPKVLIFLSSNLDSGVPARFSGSGSGTDFTLNIHPVEDGDAATYYCQHSRDLPPTFGGGTKLEIKRTVAAPSVFIFPPSDEQLKSGTASVVCLLNNFYPREAKVQWKVDNALQSGNSQESVTEQDSKDSTYSLSSTLTLSKADYEKHKVYACEVTHQGLSSPVTKSFNRGEC
notes: a Fab-type heavy chain with hole Fc; a kappa light chain
Turning to B2, the half-maximal effective concentration (EC50 (read off the curve)) in experiment [3] is roughly 0.7 nM; in experiment [4], roughly 0.9 nM.

B3: gpA33 mAb 1×CD3 mAb 2×DR5 mAb 1 (other)
chain 1: DIQLTQSPSFLSASVGDRVTITCSARSSISFMYWYQQKPGKAPKLLIYDTSNLASGVPSRFSGSGSGTEFTLTISSLEAEDAATYYCQQWSSYPLTFGQGTKLEIKGGGSGGGGEVQLVESGGGLVQPGGSLRLSCAASGFTFSTYAMNWVRQAPGKGLEWVGRIRSKYNNYATYYADSVKGRFTISRDDSKNSLYLQMNSLKTEDTAVYYCVRHGNFGNSYVSWFAYWGQGTLVTVSSGGCGGGEVAALEKEVAALEKEVAALEKEVAALEKGGGDKTHTCPPCPAPEAAGGPSVFLFPPKPKDTLMISRTPEVTCVVVDVSHEDPEVKFNWYVDGVEVHNAKTKPREEQYNSTYRVVSVLTVLHQDWLNGKEYKCKVSNKALPAPIEKTISKAKGQPREPQVYTLPPSREEMTKNQVSLWCLVKGFYPSDIAVEWESNGQPENNYKTTPPVLDSDGSFFLYSKLTVDKSRWQQGNVFSCSVMHEALHNHYTQKSLSLSPGK
chain 2: QAVVTQEPSLTVSPGGTVTLTCRSSTGAVTTSNYANWVQQKPGQAPRGLIGGTNKRAPWTPARFSGSLLGGKAALTITGAQAEDEADYYCALWYSNLWVFGGGTKLTVLGGGGSGGGGQVQLVQSGAEVKKPGASVKVSCKASGYTFTGSWMNWVRQAPGQGLEWIGRIYPGDGETNYNGKFKDRVTITADKSTSTAYMELSSLRSEDTAVYYCARIYGNNVYFDVWGQGTTVTVSSGGCGGGKVAALKEKVAALKEKVAALKEKVAALKE
heavy: EVKFLESGGGLVQPGGSLKLSCVASGFDFSRYWMSWVRQAPGKGLEWIGEINPDSNTINYTPSLKDKFIISRDNAKNTLYLQMTKVRSEDTALYYCTRRAYYGNPAWFAYWGQGTLVTVSSASTKGPSVFPLAPSSKSTSGGTAALGCLVKDYFPEPVTVSWNSGALTSGVHTFPAVLQSSGLYSLSSVVTVPSSSLGTQTYICNVNHKPSNTKVDKRVEPKSCDKTHTCPPCPAPEAAGGPSVFLFPPKPKDTLMISRTPEVTCVVVDVSHEDPEVKFNWYVDGVEVHNAKTKPREEQYNSTYRVVSVLTVLHQDWLNGKEYKCKVSNKALPAPIEKTISKAKGQPREPQVYTLPPSREEMTKNQVSLSCAVKGFYPSDIAVEWESNGQPENNYKTTPPVLDSDGSFFLVSKLTVDKSRWQQGNVFSCSVMHEALHNRYTQKSLSLSPGK
light: DIVLTQSPASLAVSLGQRATISCRASKSVSSSGYSYMHWYQQKPGQPPKVLIFLSSNLDSGVPARFSGSGSGTDFTLNIHPVEDGDAATYYCQHSRDLPPTFGGGTKLEIKRTVAAPSVFIFPPSDEQLKSGTASVVCLLNNFYPREAKVQWKVDNALQSGNSQESVTEQDSKDSTYSLSSTLTLSKADYEKHKVYACEVTHQGLSSPVTKSFNRGEC
With B3, the binding result in experiment [3] is listed as “no binding”. For the same molecule, the “EC50 (read off the curve)” value in experiment [4] is roughly 0.9 nM.

B4: EphA2 mAb 1×CD3 mAb 2×gpA33 mAb 1 (other)
chain 1: DIQMTQTTSSLSASLGDRITISCRASQDISNYLNWYQQKPDGTVKLLIYYTSRLHSGVPSRFSGSGSGTDYSLTISNLEQEDIATYFCQQGYTLYTFGGGTKLEIKGGGSGGGGEVQLVESGGGLVQPGGSLRLSCAASGFTFSTYAMNWVRQAPGKGLEWVGRIRSKYNNYATYYADSVKGRFTISRDDSKNSLYLQMNSLKTEDTAVYYCVRHGNFGNSYVSWFAYWGQGTLVTVSSGGCGGGEVAALEKEVAALEKEVAALEKEVAALEKGGGDKTHTCPPCPAPEAAGGPSVFLFPPKPKDTLMISRTPEVTCVVVDVSHEDPEVKFNWYVDGVEVHNAKTKPREEQYNSTYRVVSVLTVLHQDWLNGKEYKCKVSNKALPAPIEKTISKAKGQPREPQVYTLPPSREEMTKNQVSLWCLVKGFYPSDIAVEWESNGQPENNYKTTPPVLDSDGSFFLYSKLTVDKSRWQQGNVFSCSVMHEALHNHYTQKSLSLSPGK
chain 2: QAVVTQEPSLTVSPGGTVTLTCRSSTGAVTTSNYANWVQQKPGQAPRGLIGGTNKRAPWTPARFSGSLLGGKAALTITGAQAEDEADYYCALWYSNLWVFGGGTKLTVLGGGGSGGGGQVQLKESGPGLVAPSQSLSITCTVSGFSLSRYSVHWVRQPPGKGLEWLGMIWGGGSTDYNSALKSRLSISKDNSKSQVFLKMNSLQTDDTAMYYCARKHGNYYTMDYWGQGTSVTVSSGGCGGGKVAALKEKVAALKEKVAALKEKVAALKE
heavy: QVQLVQSGAEVKKPGASVKVSCKASGYTFTGSWMNWVRQAPGQGLEWIGRIYPGDGETNYNGKFKDRVTITADKSTSTAYMELSSLRSEDTAVYYCARIYGNNVYFDVWGQGTTVTVSSASTKGPSVFPLAPSSKSTSGGTAALGCLVKDYFPEPVTVSWNSGALTSGVHTFPAVLQSSGLYSLSSVVTVPSSSLGTQTYICNVNHKPSNTKVDKRVEPKSCDKTHTCPPCPAPEAAGGPSVFLFPPKPKDTLMISRTPEVTCVVVDVSHEDPEVKFNWYVDGVEVHNAKTKPREEQYNSTYRVVSVLTVLHQDWLNGKEYKCKVSNKALPAPIEKTISKAKGQPREPQVYTLPPSREEMTKNQVSLSCAVKGFYPSDIAVEWESNGQPENNYKTTPPVLDSDGSFFLVSKLTVDKSRWQQGNVFSCSVMHEALHNRYTQKSLSLSPGK
light: DIQLTQSPSFLSASVGDRVTITCSARSSISFMYWYQQKPGKAPKLLIYDTSNLASGVPSRFSGSGSGTEFTLTISSLEAEDAATYYCQQWSSYPLTFGQGTKLEIKRTVAAPSVFIFPPSDEQLKSGTASVVCLLNNFYPREAKVQWKVDNALQSGNSQESVTEQDSKDSTYSLSSTLTLSKADYEKHKVYACEVTHQGLSSPVTKSFNRGEC
Turning to B4, the “EC50 (read off the curve)” value was roughly 1 nM in experiment [5] and roughly 0.9 nM in experiment [3]. For the same molecule, the binding result in experiment [4] is “no binding”.
